Source: publication PMC9772228, “Structure of a RecT/Redβ family recombinase in complex with a duplex intermediate of DNA annealing”

T1: LiRecT V98A (Listeria innocua CLIP 11262, UniProt Q92FL9 1-271, V98A)
T1 sequence: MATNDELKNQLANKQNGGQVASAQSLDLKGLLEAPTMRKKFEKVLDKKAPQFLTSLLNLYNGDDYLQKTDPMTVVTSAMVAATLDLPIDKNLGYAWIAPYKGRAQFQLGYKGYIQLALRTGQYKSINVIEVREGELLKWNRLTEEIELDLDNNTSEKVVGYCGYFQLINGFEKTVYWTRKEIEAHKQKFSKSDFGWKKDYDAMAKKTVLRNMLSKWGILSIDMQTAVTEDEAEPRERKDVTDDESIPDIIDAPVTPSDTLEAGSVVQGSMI

T2: LiRecT K191A/F194A (Listeria innocua CLIP 11262, UniProt Q92FL9 1-271, K191A;F194A)
T2 sequence: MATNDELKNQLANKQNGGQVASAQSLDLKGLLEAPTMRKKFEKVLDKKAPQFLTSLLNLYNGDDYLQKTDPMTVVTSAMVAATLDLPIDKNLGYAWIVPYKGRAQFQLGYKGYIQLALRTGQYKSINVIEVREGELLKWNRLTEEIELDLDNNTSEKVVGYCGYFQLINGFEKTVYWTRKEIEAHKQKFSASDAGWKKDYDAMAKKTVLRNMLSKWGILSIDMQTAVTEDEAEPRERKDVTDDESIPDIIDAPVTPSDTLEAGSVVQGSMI


Experiments:
[1] = biological target: T1, LiRecT V98A; assay: EMSA; EMSA: PBS pH 7.4 (or KH2PO4/10 mM MgCl2 pH 6.0), 3.6 or 5 uM protein, 25 uM nt DNA, 37 C 15 min per strand, 0.8% agarose 1x TBE; cryo-EM: 20 mM KH2PO4 (Results: 10 mM), 10 mM MgCl2 pH 6.0, 37 C; native MS: 100 mM ammonium acetate pH 7, 37 C; settings: protein: recombinant, tags: N-terminal 6His vector tag (20 aa) retained, chain copies: 10, single strand
[2] = biological target: T2, LiRecT K191A/F194A; assay: as above; settings: protein: recombinant, tags: N-terminal 6His vector tag (20 aa) retained, chain copies: 10, single strand

Binder | binding result ([1]; label: 5'-Cy3) | binding result ([2]; label: 5'-Cy3) | binding result ([1]; label: 5'-Cy5) | binding result ([2]; label: 5'-Cy5)
GCGGATGGCTTAGAGCAGAATCGCCCTGCATAGCTCGATTTTTGCGGATG (ssDNA) [Cy3-50mer] | binds | binds | – | –
CCATCCGCAAAAATCGAGCTATGCAGGGCGATTCTGCTCTAAGCCATCCG (ssDNA) [Cy5-50mer] | – | – | binds | binds
